This is an account of results in patent US20250262210A1 (TRUSTEES OF COLUMBIA UNIVERSITY IN THE CITY OF NEW YORK, published 2025).

The target of assay [1] is T1, LZTR1 R810W-FLAG (human, UniProt Q8N653 1-840).
T1 construct: Stably expressed in U87 cells by lentivirus; also called LZTR1-FLAG-R810W; LZTR1 RW; not shown: FLAG tag
T1 sequence (looked up): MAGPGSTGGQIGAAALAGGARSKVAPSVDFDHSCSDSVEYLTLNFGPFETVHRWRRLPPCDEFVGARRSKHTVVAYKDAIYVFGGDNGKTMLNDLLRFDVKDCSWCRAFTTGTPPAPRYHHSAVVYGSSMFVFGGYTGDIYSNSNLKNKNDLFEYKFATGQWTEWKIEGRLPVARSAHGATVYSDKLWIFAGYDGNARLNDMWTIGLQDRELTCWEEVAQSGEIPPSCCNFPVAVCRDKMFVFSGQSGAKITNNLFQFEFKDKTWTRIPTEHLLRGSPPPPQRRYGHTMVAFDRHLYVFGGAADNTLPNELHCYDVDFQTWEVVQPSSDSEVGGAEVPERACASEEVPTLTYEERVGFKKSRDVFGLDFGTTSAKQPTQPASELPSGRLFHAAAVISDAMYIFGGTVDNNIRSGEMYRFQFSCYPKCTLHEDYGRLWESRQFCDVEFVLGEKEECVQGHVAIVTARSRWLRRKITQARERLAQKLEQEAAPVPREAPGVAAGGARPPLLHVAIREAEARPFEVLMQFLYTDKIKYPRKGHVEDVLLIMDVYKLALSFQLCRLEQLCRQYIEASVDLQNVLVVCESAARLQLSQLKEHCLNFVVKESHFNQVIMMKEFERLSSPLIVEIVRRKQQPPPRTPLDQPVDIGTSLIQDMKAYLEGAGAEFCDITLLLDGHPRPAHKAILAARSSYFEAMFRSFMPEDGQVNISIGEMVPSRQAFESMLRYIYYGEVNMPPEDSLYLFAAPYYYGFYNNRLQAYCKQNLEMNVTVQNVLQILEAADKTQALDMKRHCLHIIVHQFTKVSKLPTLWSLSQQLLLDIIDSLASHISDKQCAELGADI
Briefly: IP/MS, LZTR1 R810W-FLAG, U87. In a few lines:
(§1)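 Gel slices were reduced with 5 mM DTT, alkylated with 11 mM IAA and digested overnight at 37° C. with trypsin. Peptides were analysed on an Orbitrap Fusion Tribrid by LC-MS/MS.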

In assay [2] the target is T2, LZTR1-FLAG (human, UniProt Q8N653 1-840).
T2 construct: Expressed in HEK 293T, HeLa or U87 cells; used as cell lysate; also called LZTR1 wild type-FLAG; LZTR1 WT; not shown: FLAG tag at the C-terminus
T2 sequence (looked up): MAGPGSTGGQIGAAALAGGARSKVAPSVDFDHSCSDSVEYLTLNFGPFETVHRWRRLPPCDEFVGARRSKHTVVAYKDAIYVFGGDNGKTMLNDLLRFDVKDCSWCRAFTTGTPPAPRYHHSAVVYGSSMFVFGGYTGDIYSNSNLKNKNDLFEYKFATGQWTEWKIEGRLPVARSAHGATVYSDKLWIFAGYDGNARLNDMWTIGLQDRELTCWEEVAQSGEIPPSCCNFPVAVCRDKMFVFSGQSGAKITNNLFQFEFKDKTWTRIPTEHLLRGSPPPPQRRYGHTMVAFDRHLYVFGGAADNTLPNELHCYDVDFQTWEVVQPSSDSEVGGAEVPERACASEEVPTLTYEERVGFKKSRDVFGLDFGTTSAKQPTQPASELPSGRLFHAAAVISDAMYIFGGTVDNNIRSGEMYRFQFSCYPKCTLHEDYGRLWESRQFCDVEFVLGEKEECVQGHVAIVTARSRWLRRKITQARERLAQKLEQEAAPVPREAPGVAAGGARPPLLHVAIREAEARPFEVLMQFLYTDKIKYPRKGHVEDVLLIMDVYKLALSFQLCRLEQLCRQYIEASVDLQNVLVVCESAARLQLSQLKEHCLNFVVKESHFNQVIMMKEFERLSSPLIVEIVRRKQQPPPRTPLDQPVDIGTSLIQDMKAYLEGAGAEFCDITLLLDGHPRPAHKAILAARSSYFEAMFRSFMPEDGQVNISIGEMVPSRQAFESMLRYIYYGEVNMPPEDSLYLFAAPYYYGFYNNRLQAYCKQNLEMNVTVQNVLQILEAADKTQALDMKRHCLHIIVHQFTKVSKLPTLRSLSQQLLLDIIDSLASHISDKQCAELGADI
Briefly: IP/MS, LZTR1 wild type-FLAG, U87. The essentials:
as §1

B1: GMPPA (other, human, UniProt Q96IJ6 1-420, looked up)
chain: MLKAVILIGGPQKGTRFRPLSFEVPKPLFPVAGVPMIQHHIEACAQVPGMQEILLIGFYQPDEPLTQFLEAAQQEFNLPVRYLQEFAPLGTGGGLYHFRDQILAGSPEAFFVLNADVCSDFPLSAMLEAHRRQRHPFLLLGTTANRTQSLNYGCIVENPQTHEVLHYVEKPSTFISDIINCGIYLFSPEALKPLRDVFQRNQQDGQLEDSPGLWPGAGTIRLEQDVFSALAGQGQIYVHLTDGIWSQIKSAGSALYASRLYLSRYQDTHPERLAKHTPGGPWIRGNVYIHPTAKVAPSAVLGPNVSIGKGVTVGEGVRLRESIVLHGATLQEHTCVLHSIVGWGSTVGRWARVEGTPSDPNPNDPRARMDSESLFKDGKLLPAITILGCRVRIPAEVLILNSIVLPHKELSRSFTNQIIL
On to B1, for which the binding result in assay [1] and in assay [2] was “binds” in each case.

B2: IFT57 (other, human, UniProt Q9NWB7 1-429, looked up)
chain: MTAALAVVTTSGLEDGVPRSRGEGTGEVVLERGPGAAYHMFVVMEDLVEKLKLLRYEEEFLRKSNLKAPSRHYFALPTNPGEQFYMFCTLAAWLINKAGRPFEQPQEYDDPNATISNILSELRSFGRTADFPPSKLKSGYGEHVCYVLDCFAEEALKYIGFTWKRPIYPVEELEEESVAEDDAELTLNKVDEEFVEEETDNEENFIDLNVLKAQTYHLDMNETAKQEDILESTTDAAEWSLEVERVLPQLKVTIRTDNKDWRIHVDQMHQHRSGIESALKETKGFLDKLHNEITRTLEKISSREKYINNQLENLVQEYRAAQAQLSEAKERYQQGNGGVTERTRLLSEVMEELEKVKQEMEEKGSSMTDGAPLVKIKQSLTKLKQETVEMDIRIGIVEHTLLQSKLKEKSNMTRNMHATVIPEPATGFY
Take B2: the binding result in assay [1] and in assay [2] was “binds” each time.

B3: IFI16 (other, human, UniProt Q16666 1-785, looked up)
chain: MGKKYKNIVLLKGLEVINDYHFRMVKSLLSNDLKLNLKMREEYDKIQIADLMEEKFRGDAGLGKLIKIFEDIPTLEDLAETLKKEKLKVKGPALSRKRKKEVDATSPAPSTSSTVKTEGAEATPGAQKRKKSTKEKAGPKGSKVSEEQTQPPSPAGAGMSTAMGRSPSPKTSLSAPPNSSSTENPKTVAKCQVTPRRNVLQKRPVIVKVLSTTKPFEYETPEMEKKIMFHATVATQTQFFHVKVLNTSLKEKFNGKKIIIISDYLEYDSLLEVNEESTVSEAGPNQTFEVPNKIINRAKETLKIDILHKQASGNIVYGVFMLHKKTVNQKTTIYEIQDDRGKMDVVGTGQCHNIPCEEGDKLQLFCFRLRKKNQMSKLISEMHSFIQIKKKTNPRNNDPKSMKLPQEQRQLPYPSEASTTFPESHLRTPQMPPTTPSSSFFTKKSEDTISKMNDFMRMQILKEGSHFPGPFMTSIGPAESHPHTPQMPPSTPSSSFLTTKSEDTISKMNDFMRMQILKEGSHFPGPFMTSIGPAESHPHTPQMPPSTPSSSFLTTLKPRLKTEPEEVSIEDSAQSDLKEVMVLNATESFVYEPKEQKKMFHATVATENEVFRVKVFNIDLKEKFTPKKIIAIANYVCRNGFLEVYPFTLVADVNADRNMEIPKGLIRSASVTPKINQLCSQTKGSFVNGVFEVHKKNVRGEFTYYEIQDNTGKMEVVVHGRLTTINCEEGDKLKLTCFELAPKSGNTGELRSVIHSHIKVIKTRKNKKDILNPDSSMETSPDFFF
Regarding B3, the binding result in assay [1] and in assay [2] was “binds” in each case.

B4: GUCY1B1 (other, human, UniProt Q02153 1-619, looked up)
chain: MYGFVNHALELLVIRNYGPEVWEDIKKEAQLDEEGQFLVRIIYDDSKTYDLVAAASKVLNLNAGEILQMFGKMFFVFCQESGYDTILRVLGSNVREFLQNLDALHDHLATIYPGMRAPSFRCTDAEKGKGLILHYYSEREGLQDIVIGIIKTVAQQIHGTEIDMKVIQQRNEECDHTQFLIEEKESKEEDFYEDLDRFEENGTQESRISPYTFCKAFPFHIIFDRDLVVTQCGNAIYRVLPQLQPGNCSLLSVFSLVRPHIDISFHGILSHINTVFVLRSKEGLLDVEKLECEDELTGTEISCLRLKGQMIYLPEADSILFLCSPSVMNLDDLTRRGLYLSDIPLHDATRDLVLLGEQFREEYKLTQELEILTDRLQLTLRALEDEKKKTDTLLYSVLPPSVANELRHKRPVPAKRYDNVTILFSGIVGFNAFCSKHASGEGAMKIVNLLNDLYTRFDTLTDSRKNPFVYKVETVGDKYMTVSGLPEPCIHHARSICHLALDMMEIAGQVQVDGESVQITIGIHTGEVVTGVIGQRMPRYCLFGNTVNLTSRTETTGEKGKINVSEYTYRCLMSPENSDPQFHLEHRGPVSMKGKKEPMQVWFLSRKNTGTEETKQDDD
B4: the binding result in assay [1] and in assay [2] was “binds” each time.

B5: GPD2 (other, human, UniProt P43304 43-727, looked up)
chain: ADCISEPVNREPPSREAQLLTLQNTSEFDILVIGGGATGSGCALDAVTRGLKTALVERDDFSSGTSSRSTKLIHGGVRYLQKAIMKLDIEQYRMVKEALHERANLLEIAPHLSAPLPIMLPVYKWWQLPYYWVGIKLYDLVAGSNCLKSSYVLSKSRALEHFPMLQKDKLVGAIVYYDGQHNDARMNLAIALTAARYGAATANYMEVVSLLKKTDPQTGKVRVSGARCKDVLTGQEFDVRAKCVINATGPFTDSVRKMDDKDAAAICQPSAGVHIVMPGYYSPESMGLLDPATSDGRVIFFLPWQKMTIAGTTDTPTDVTHHPIPSEEDINFILNEVRNYLSCDVEVRRGDVLAAWSGIRPLVTDPKSADTQSISRNHVVDISESGLITIAGGKWTTYRSMAEDTINAAVKTHNLKAGPSRTVGLFLQGGKDWSPTLYIRLVQDYGLESEVAQHLAATYGDKAFEVAKMASVTGKRWPIVGVRLVSEFPYIEAEVKYGIKEYACTAVDMISRRTRLAFLNVQAAEEALPRIVELMGRELNWDDYKKQEQLETARKFLYYEMGYKSRSEQLTDRSEISLLPSDIDRYKKRFHKFDADQKGFITIVDVQRVLESINVQMDENTLHEILNEVDLNKNGQVELNEFLQLMSAIQKGRVSGSRLAILMKTAEENLDRRVPIPVDRSCGGL
Regarding B5, the binding result in assay [1] and in assay [2] was “binds” each time.

B6: IKBKB (other, human, UniProt O14920 1-756, looked up)
chain: MSWSPSLTTQTCGAWEMKERLGTGGFGNVIRWHNQETGEQIAIKQCRQELSPRNRERWCLEIQIMRRLTHPNVVAARDVPEGMQNLAPNDLPLLAMEYCQGGDLRKYLNQFENCCGLREGAILTLLSDIASALRYLHENRIIHRDLKPENIVLQQGEQRLIHKIIDLGYAKELDQGSLCTSFVGTLQYLAPELLEQQKYTVTVDYWSFGTLAFECITGFRPFLPNWQPVQWHSKVRQKSEVDIVVSEDLNGTVKFSSSLPYPNNLNSVLAERLEKWLQLMLMWHPRQRGTDPTYGPNGCFKALDDILNLKLVHILNMVTGTIHTYPVTEDESLQSLKARIQQDTGIPEEDQELLQEAGLALIPDKPATQCISDGKLNEGHTLDMDLVFLFDNSKITYETQISPRPQPESVSCILQEPKRNLAFFQLRKVWGQVWHSIQTLKEDCNRLQQGQRAAMMNLLRNNSCLSKMKNSMASMSQQLKAKLDFFKTSIQIDLEKYSEQTEFGITSDKLLLAWREMEQAVELCGRENEVKLLVERMMALQTDIVDLQRSPMGRKQGGTLDDLEEQARELYRRLREKPRDQRTEGDSQEMVRLLLQAIQSFEKKVRVIYTQLSKTVVCKQKALELLPKVEEVVSLMNEDEKTVVRLQEKRQKELWNLLKIACSKVRGPVSGSPDSMNASRLSQPGQLMSQPSTASNSLPEPAKKSEELVAEAHNLCTLLENAIQDTVREQDQSFTALDWSWLQTEEEEHSCLEQAS
With B6, the binding result in assay [1] and in assay [2] was “binds” each time.
